The data set can be described thus: yeast display, Sf9 membrane polyspecificity reagent, FACS + sequencing; frameworks hold sequencing errors. In a few lines: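 Genes from sorted yeast were amplified by colony PCR, read by MiSeq 2 × 250 sequencing and filtered on CDR length. These cells carried a synthetic nanobody library in Saccharomyces cerevisiae BJ5465 and were sorted by FACS into low and high (top ~1%) gates on anti-HA and streptavidin fluorescence. Polyreactivity is labelled according to the gate of origin.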
As for “QVQLVESGGGLVQAGGSLRLSCAASGSTFTYYAMGWYRQAPGKEREFVATITYSGGSTYYADSVKGRFTISRDNAKNTVYLQMNSLKPEDTAVYYCAARVGRPSLVAAKYDYWGQGTQVTVSS”, the “polyreactivity (PSR sort gate)” value is given as “high polyreactivity”.

On to “QVQLVESGGGLVQAGGSLRLSCAASGSTFTYYAMGWYRQAPGKERELVAAISRRGGSTYYADSVKGRFTISRDNAKNTVYLQMNSLKPEDTAVYYCAAASHGRFYYWGQGTQVTVSS”, for which the “polyreactivity (PSR sort gate)” value is “high polyreactivity”.

Consider “QVQLVESGGGLVQAGGSLRLSCAASGSTFTYYAMGWYRQAPGKERELVAAITGGGSTNYADSVKGRFTISRDNAKNTVYLQMNSLKPEDTAVYYCAARTARYYYGWRYTGEYGYWGQGTQVTVSS”, for which the “polyreactivity (PSR sort gate)” value is reported as “high polyreactivity”.

Regarding “QVQLVESGGGLVQAGGSLRLSCAASGSTFTYYAMGWYRQAPGKERELVAAITRRGGSTYYADSVKGRFTISRDNAKNTVYLQMNSLIPEDTAVYYCAKSTQIRAYIWDPYRISTYGYWGQGTQVTVSS”, the “polyreactivity (PSR sort gate)” value was “high polyreactivity”.

Turning to “QVQLVESGGGLVQAGGSLRLSCAASGSTFTYYAMGWYRQAPGKERELVASISSTTGSTYYADSVKGRFTISRDNAKNTVYLQMNSLKPEDTAVYYCAAERVYPWYRYYYWGQGTQVTVSS”, the “polyreactivity (PSR sort gate)” value is “low polyreactivity”. With “QVQLVESGGGLVQAGGSLRLSCAASGSTFVANAMGWYRQAPGKERELVAAISFNRGGNTYYADSVKGRFTISRDNAKNTVYLQMNSLKPEDTAVYYCAARNSYGNWRYYYWGQGTQVTVSS” the entry was “high polyreactivity”; with “QVQLVESGGGLVQAGGSLRLSCAASGSTFVDNDMGWYRQAPGKERELVAAAITARGGSTYYADSVKGRFTISRDNAKNTVYLQMNSLKPEDTAVYYCAAGRPGELDYWGQGTQVTVSS”, “low polyreactivity”. On to “QVQLVESGGGLVQAGGSLRLSCAASGSTFVDYAMGWYRQAPGKERELVAAINSDGGGTYYADSVKGRFTISRDNAKNTVYLQMNSLKPEDTAVYYCNVEYEDYYAQRYGYDYWGQGTQVTVSS”, for which the “polyreactivity (PSR sort gate)” value was “low polyreactivity”. For the sequence “QVQLVESGGGLVQAGGSLRLSCAASGSTFVDYAMGWYRQAPGKERELVAGINGSGGSTYYADSVKGRFTISRDNAKNTVYLQMNSLKPEDTAVYYCAKDGSNRLALPAWDYNYWGQGTQVTVSS”, the “polyreactivity (PSR sort gate)” value is reported as “low polyreactivity”. The value for “QVQLVESGGGLVQAGGSLRLSCAASGSTFVFYVMVWYRQAPGKERQLVAAITGSTTSTYYAVSVKGRFTISRDNAKNTVYLQMNSLKPEDTAVYYCAAEVLRGRGFGYWGQGTQVCVSS” was “high polyreactivity”. The value for “QVQLVESGGGLVQAGGSLRLSCAASGSTFVGNAMGWYRQAPVKERELVATISNSGGHTFYADSVKGRFTISRDNAKNTVYLQMNSLKPEDTAVYYCAASTSGAIRRDGYWGQGTQVTVSS” was “low polyreactivity”. Consider “QVQLVESGGGLVQAGGSLRLSCAASGSTFVGYAMGWYRQAPGKERELVASITRRGGSTYYADSVKGRFTISRDNAKNTVYLQMNSLKPEDTAVYYCATPLYKTATWRAYEYWGQGTQVTVSS”, for which the “polyreactivity (PSR sort gate)” value was “high polyreactivity”. For “QVQLVESGGGLVQAGGSLRLSCAASGSTFVGYAMGWYSPAPGKERELVADIDSIGGSTYYADSVKGRFTISRDYANNTVYLQINSLKPEDTAVFYCAARRFDTALVLYDYWGPGTQVTVSS”, the “polyreactivity (PSR sort gate)” value is on record as “low polyreactivity”. With “QVQLVESGGGLVQAGGSLRLSCAASGSTFVGYAMVWYRQAPGKERELVAAISYSGGSTYYADSVKGRFTISRDNAKNTVYLQMNSLKPEDTAVYYCAAEWSRHYYSGPRYDSWGQGSQVTVSS”, the “polyreactivity (PSR sort gate)” value is recorded as “low polyreactivity”.

As for “QVQLVESGGGLVQAGGSLRLSCAASGSTFVGYTMGWYRQAPGKERELVASITSDGSTNYADSVKGRFTISRDNAKNTVYLQMNSLKREDTAVYYCNADWSSLYVGEFDYWGQGTQVTVSS”, the “polyreactivity (PSR sort gate)” value is “low polyreactivity”. For the sequence “QVQLVESGGGLVQAGGSLRLSCAASGSTFVGYVMGWYRQAPGKERELVAAITRSGTSTYYADSVKGRFTISRDNAKNTVYLQMNSLKPEDTAVYYCARRYVSSDYYYWGQGTQVTVSS”, the “polyreactivity (PSR sort gate)” value was “low polyreactivity”. On to “QVQLVESGGGLVQAGGSLRLSCAASGSTFVHYAMGWYRQAPGKERELVAAINDGGSTHYADSVKGRFTISRDNAKNTVYLQMHSLKPEDTAVYYCAAEYVWYRYPDYWGAYDYWGQGTQVTVSS”, for which the “polyreactivity (PSR sort gate)” value is “low polyreactivity”. For “QVQLVESGGGLVQAGGSLRLSCAASGSTFVKNTMGWYRQAPGKERELVAAIRSSGGSTYYADSVKGRFTISRDNAKNTVYLQMNSLKPEDTAVYYCAAGRGPEGTDDSWGQGTQVTVSS”, the “polyreactivity (PSR sort gate)” value is listed as “high polyreactivity”. Regarding “QVQLVESGGGLVQAGGSLRLSCAASGSTFVKYAMGWYRQAPGKERELVAAINRSGASTYYADSVKGRFTISRDNAKNTVYLQMNSLKPEDTAVYYCAARFSWVGYYWGQGTQVTVSS”, the “polyreactivity (PSR sort gate)” value was “high polyreactivity”.

For “QVQLVESGGGLVQAGGSLRLSCAASGSTFVKYAMGWYRQAPGKERELVAAITDGGGGTFYADSVKGRFTISRDNGLNTVYLQMNSLNPEDTAVFYCNVGVSSAEDFDYWGQGTQVTVSS”, the “polyreactivity (PSR sort gate)” value is recorded as “low polyreactivity”. In the case of “QVQLVESGGGLVQAGGSLRLSCAASGSTFVKYVMGWYRQAPGKERELVAAISRSSVRTSYADSVKGRFTISRDNAKNTVYLQMNSLKPEDTAVYYCAAEYQYGGTTFDYWGQGTQVTVSS”, the “polyreactivity (PSR sort gate)” value is reported as “high polyreactivity”.

For the sequence “QVQLVESGGGLVQAGGSLRLSCAASGSTFVLNAMGWYRQAPGKERELVAAINLDSGNTNYADSVKGRFTISRDNAKNTVYLQMNSLKPEDTAVYYCNTDVKFGGTAYDYWGQGTQVTVSS”, the “polyreactivity (PSR sort gate)” value is “low polyreactivity”. With “QVQLVESGGGLVQAGGSLRLSCAASGSTFVLYAMGWDRQAPGKERELVAAISGGATTTYADSVKGRFTISRDNAKNTVYLQMNSLKPEDTAVYSCAADFSTFVVSGAAMDYWGQGTQVTVSS”, the “polyreactivity (PSR sort gate)” value is recorded as “low polyreactivity”.

Take “QVQLVESGGGLVQAGGSLRLSCAASGSTFVLYAMGWYRQAPGKERELVADITWSGGSTYYADSVKGRFTISRDNAMNTVYLLMNSLKPEDTAVYYCAARYPWVYYDFDYWGQGTQVTVSS”: the “polyreactivity (PSR sort gate)” value was “low polyreactivity”. Take “QVQLVESGGGLVQAGGSLRLSCAASGSTFVLYAMGWYRQAPGKERELVAVISWSGGSTYYADSVKGRFTISRDNAKNTVYLQMNSLKPEDTAVYYCAKRYRVSYYPYADPYGYWGQGTQVTVSS”: the “polyreactivity (PSR sort gate)” value is given as “low polyreactivity”. Consider “QVQLVESGGGLVQAGGSLRLSCAASGSTFVLYANGWYRQAPGKERELVAASTRRGGDTYYADSVKGRFTISRDNATNTVYLQMNSLKPEDTAVDYCATDYTTYGRYYYWGQGTQVTVSS”, for which the “polyreactivity (PSR sort gate)” value is “low polyreactivity”. Regarding “QVQLVESGGGLVQAGGSLRLSCAASGSTFVNNAMGWYRQAPGKERELVAAISKTGGRTRYADSVKGRFTISRDNAKNTVYLQMNSLKPEDTAVYYCAARYYGGGYNYWGQGTQVTVSS”, the “polyreactivity (PSR sort gate)” value is on record as “high polyreactivity”. With “QVQLVESGGGLVQAGGSLRLSCAASGSTFVPNAMGWYRQAPGKERELVAAITVDGDDTYYADSVKGRFTISRDNAKNTVYLQMNSLKPEDTAVYYCAAEQDPWTSRYVFFASRYDYWGQGTQVTVSS”, the “polyreactivity (PSR sort gate)” value is “low polyreactivity”. Regarding “QVQLVESGGGLVQAGGSLRLSCAASGSTFVPNAMGWYRQAPGKERELVATINYADSVKGRFTISRDNAKNTVYLQMNSLKPEDTAVYYCATETAVYLVWGTALDYWGQGTQVTVSS”, the “polyreactivity (PSR sort gate)” value is reported as “low polyreactivity”.

“QVQLVESGGGLVQAGGSLRLSCAASGSTFVPNAMGWYRQAPGTERELVAAITVDGDDTYYADSVKGRFTISRDNAKNTVYFQMNSLKPEVTAVYYCKADPDVPFFSWLTGRGTYDYWGQGTQVTVSS”: the “polyreactivity (PSR sort gate)” value was “low polyreactivity”. With “QVQLVESGGGLVQAGGSLRLSCAASGSTFVPNDMGGYRQAPGKERELVAAISYSGGSTYYADSVKGRFTISRDNAKNTVYLQMNSLKPEDTAVYYCAADKYLGELDYWGQGTQVTVSS” the entry was “low polyreactivity”; with “QVQLVESGGGLVQAGGSLRLSCAASGSTFVPNDMGWYRQAPGKERELVAAISYSGGSTYYADSVKGRFTISRDNAKNTVYLQMNSLKPEDTAVYYCAAEKYLGELDYWGQGTQVTVSS”, “low polyreactivity”; with “QVQLVESGGGLVQAGGSLRLSCAASGSTFVPNTMGWYRQAPGKERELVADITYSGGSTYYADSVKGRFTISRDNAKNTVYLQMNSLKPEDTAVYYCAAEGTTWYYDMDYWGQGTQVTVSS”, “low polyreactivity”. As to “QVQLVESGGGLVQAGGSLRLSCAASGSTFVPYPMGWYRQAPGKERELVAAISSTGGSTYYADSVKGRFTISRDNAKNTVYLQMNSLKPEDNAVYYCNALAKIRYGQINKGYYRGQGTQVTVSS”, the “polyreactivity (PSR sort gate)” value is on record as “high polyreactivity”.

For the sequence “QVQLVESGGGLVQAGGSLRLSCAASGSTFVQYTMGWYRQAPGKERELVAVITGGDGSTYYADSVKGRFTISRDNAKNTVYLLMNSLKPEDTAVYYCNADVYDYLRGGYEFDYWGQGTQVTVSS”, the “polyreactivity (PSR sort gate)” value is “low polyreactivity”. The value for “QVQLVESGGGLVQAGGSLRLSCAASGSTFVRNAMGWYRQAPGKERELVAAISGSGSRTYYADSVKGRFTISRDNAKNTVYLQMNSLKPEDTAVYYCAARITAHEYDYWGQGTQVTVSS” was “high polyreactivity”. As to “QVQLVESGGGLVQAGGSLRLSCAASGSTFVRNAMGWYRQAPGKERELVAAISTRGGSTSYADSVKGRFTISRDNAKNTVYLQMNCLKPEDTAVYYCAKVHAYSQGIRHGYWGQGTQVTVSS”, the “polyreactivity (PSR sort gate)” value is given as “low polyreactivity”. Consider “QVQLVESGGGLVQAGGSLRLSCAASGSTFVRNAMGWYRQAPGKERELVAGISTGDKTYYADSVKGRFTISRDNAKNTVYLQMNSLKPEDTAVYYCAASVGTYQTATLDYDSWGQGTQVTVSS”, for which the “polyreactivity (PSR sort gate)” value was “low polyreactivity”. As to “QVQLVESGGGLVQAGGSLRLSCAASGSTFVRNAMGWYRQAPGKERELVAGISTGDNTYYADSVKGRFTISRDNAKNTVYLQMNSLKPEDTAVDYCNATKDFSFGLDYWGQGTQVTVSS”, the “polyreactivity (PSR sort gate)” value is on record as “low polyreactivity”. For “QVQLVESGGGLVQAGGSLRLSCAASGSTFVRNAMGWYRQPPGKDRELVAAISWRGGSTYYADTVKGRFTISRDNAKNTVYLQMNSLKPEDTAVYYCNKVGTWQGPYDYWGQGTQVTVSS”, the “polyreactivity (PSR sort gate)” value was “high polyreactivity”. With “QVQLVESGGGLVQAGGSLRLSCAASGSTFVRYAMGWYRQAPGKERELVAAIRGGGGTYYADSVKGRFTISRDNAKNTVYLQMNSLKPVDTAVYYCAADTYYYYWFAGYTEYDYWGQGTQVTVSS” the entry was “low polyreactivity”.
